Assay results reported in article PMC6363177, “R pyocin tail fiber structure reveals a receptor-binding domain with a lectin fold” (PLoS ONE, 2019).

B1: R2-subtype N-terminally truncated tail fiber fragment (R2-NTF) (domain or fragment)
chain: YVRVSYAANPSIREWLPWQRCDIGGSFTKEADGELPGGVNLDSMVTSGWWSQSFTAQAASGANYPIVRAGLLHVYAASSNFIYQTYQAYDGESFYFRCRHSNTWFPWRRMWHGGDFNPSDYLLKSGFYWNALPGKPATFPPSAHNHDVGQLTSGILPLARGGVGSNTAAGARSTIGAGVPATASLGASGWWRDNDTGLIRQWGQVTCPADADASITFPIPFPTLCLGGYANQTSAFHPGTDASTGFRGATTTTAVIRNGYFAQAVLSWEAFGR
notes: R2-subtype pyocin tail fiber PA0620 of Pseudomonas aeruginosa PAO1, residues Y419-R691; numbering relative to native PA0620; Cloned into pMCSG11 (LIC); 32.2 kDa printed; Removal of the tag before crystallisation is not mentioned; also called R2-subtype pyocin tail fiber distal region; PA0620 Y419-R691; source: E. coli BL21 (DE3), co-expressed with chaperone PA0621; in lysate for the Ni-IMAC …
B2: Selenomethionine-labelled R2-NTF (domain or fragment)
chain: B1 chain
modifications: selenomethionine in place of methionine
notes: R2-subtype pyocin tail fiber PA0620 of Pseudomonas aeruginosa PAO1, residues Y419-R691 (plasmid pMCSG11/R2-NTF, as m1); numbering relative to native PA0620; Same construct as m1, made in another host and labelled with selenomethionine for Se-SAD phasing; also called Sel-met R2-NTF; selenomethionine replaced R2-NTF; source: E. coli B834 (DE3) methionine auxotroph, co-expressed with PA0621 in M9 …

What was measured:
[1] = target: the molecule itself; experiment: SEC; analytical Sepharose-200 10/300 column, elution volumes compared with SEC standards (Biorad); samples diluted to 1 mg/mL in 50mM Tris pH 8.0, 150mM NaCl, 5% glycerol
[2] = target: the molecule itself; experiment: crystal structure; vapor diffusion crystals at 16°C; trimer formed by crystallographic symmetry, also checked with PISA

Protein	stoichiometry N [1]	stoichiometry N [2]
B1	3	–
B2	–	3
